What was measured:
[1] = tested on: Wild-type (Col-0), Δppd mutant and transgenic PPD-OX seedlings; assay: Hypocotyl elongation of seedlings on exogenous GA or PAC; format: in vivo, Arabidopsis thaliana
Description: Giberellic acid (GA) treatment is known to reduce levels of the DELLA proteins (including RGA1) which are GA repressors; to determine the relationship between PPD, DELLA and the GA signalling pathway the applicants performed a yeast two-hybrid (Y2H) analysis between PPD and DELLA (RGA1) and applied gibberellic acid (GA) hormone and GA biosynthesis inhibitor (paclobutrazol, PAC) to wild type, Δppd mutant, and the Δppd mutant PPD over expressor (PPD-OX).
For exogenous applications of GA or PAC seeds were surface sterilised with 70% ethanol, 0.01% Triton X-100 for 10 min, followed by 100% ethanol for 5 min, air dried on sterile filter paper, and transferred to media plates containing half-strength MS salts, 1% sucrose and 0.8% agar. Plates were incubated for 5 days at 4° C. in the dark then transferred to 24° C. with a 14 h light/10 h dark daily cycle. Light was provided by fluorescent tubes (Philips TLD 58W/865) at an intensity of 100 μM m^−2s^−1. Wild-type (Col-0) Δppd mutant and transgenic PPD-OX seedlings were grown for five days on medium with different concentrations of GA (FIG. 11A) or PAC (FIG. 11B). GA (ACROS organics), and PAC (Sigma-Aldrich) were dissolved in ethanol and acetone respectively, filter sterilised and incorporated into media plates. Ethanol or acetone (0.5%) was used for mock treatments. Seedlings were grown at 24° C. under a 14 h light/10 h dark daily cycle for 5 days before hypocotyl lengths were analysed (n=35). Each treatment was repeated twice; error bars=standard error of the mean.

[2] = tested on: Arabidopsis Δppd mutant; assay: Complementation of the Arabidopsis Δppd mutant leaf phenotype; format: in vivo; details: CaMV35s promoter, Arabidopsis thaliana ecotype Landsberg erecta, FIG. 13
Description: The functionality of any PEAPOD sequence can be confirmed by complementation of the Arabidopsis Δppd mutant leaf phenotype. Complementation of the Arabidopsis Δppd mutant leaf phenotype was first used to identify the Arabidopsis PPD gene (White 2006). This was seen by a restoration of the wild type flattened leaf phenotype and normal rosette shape as opposed to the domed leaf and the twisting of the rosette to a “propeller” phenotype.
Arabidopsis thaliana (L.) Heynh ecotype Ler can be used as wild-type (WT). The Δppd loss of function deletion mutant (with PPD1 and PPD2 deleted) is as previously described in White 2006, PNAS 103, 13238-13243.
Plants are grown in a temperature-controlled glasshouse at a continuous 21° C. or in a controlled environment cabinet at 23° C. in 16-h light_8-h dark cycles.
Constructs above can be transformed into Arabidopsis by the floral dip infiltration method (Clough and Bent, 1998, Plant J 16, 735-43). The Δppd line is transformed to express the PPD polypeptides by standard techniques. Transgenic plants are confirmed by standard PCR analysis techniques with a combination of transgene-specific and T-DNA primers.
Complementation of the Δppd line to produce a wild-type leaf and rosette phenotype in T1 seedlings (the off-spring of the infiltrated plant) confirms PEAPOD functionality of the introduced gene, which can be shown in photographs.

[3] = tested on: ryegrass plants; assay: Leaf biomass analysis of grass transformants; format: in vivo; details: constitutive promoter, observed leaf growth, approximately 6 weeks
Protocol: (§1) An equal number (typically 4-10) of tillers were taken from WT and ryegrass plants transformed with Arabidopsis PPD under one of two green tissue promoters. Tillers were planted into plastic grow bags containing potting mix and pruned to be of equal height. […] The increase in leaf/shoot biomass can be quantified removing the attached above ground portion (leaves and shoots) and drying them at 65° C. for 48 hr then weighing the dry weights.
as §1, with “a constitutive promoter.” for “one of two green tissue promoters.”, “was” for “can be”, “weights (Table 2).” for “weights.”

[4] = tested on: ryegrass plants; assay: Root biomass analysis of grass transformants; format: in vivo; details: constitutive promoter, root growth beyond the grow bag, approximately 6 weeks
Protocol: as §1, with “three root” for “two green tissue”, “root” for “leaf/shoot”, “was” for “can be”, “the roots” for “them”, “weights (Tables 3 and 4)” for “weights.”
as §1, with “a constitutive promoter.” for “one of two green tissue promoters.”, “root” for “leaf/shoot”, “was” for “can be”, “the roots” for “them”, “weights (Table 5).” for “weights.”

## CC(C)(C)[C@@H](O)[C@@H](Cc1ccc(Cl)cc1)n1cncn1 (racemic) [PAC, paclobutrazol]
[1]; PPD-OX seedlings, PAC beyond 0.1 μM
  hypocotyl length: decrease in hypocotyl length
[1]; PPD-OX seedlings, PAC up to 0.1 μM
  hypocotyl elongation: relatively insensitive
[1]; wild type seedlings, 0 to 10 μM PAC, 5 days
  hypocotyl elongation: dose dependent decrease of hypocotyl elongation
[1]; Δppd seedlings, 0 to 10 μM PAC, compared with wild type
  hypocotyl elongation: larger reduction in hypocotyl elongation

## C=C1C[C@]23C[C@@]1(O)CC[C@H]2[C@@]12C=C[C@H](O)[C@@](C)(C(=O)O1)[C@H]2[C@@H]3C(=O)O [GA, gibberellic acid]
[1]; PPD-OX seedlings, 1 μM GA, 5 days
  hypocotyl elongation: increased hypocotyl elongation
[1]; PPD-OX seedlings, up to 10 μM GA, 5 days
  hypocotyl elongation: hypersensitive elongation
[1]; WT seedlings, 5-50 μM GA, 5 days
  hypocotyl elongation: elongation of the WT hypocotyl occurred in a dose dependent manner
[1]; wild type (WT) seedlings, 1 μM GA, 5 days
  hypocotyl elongation: did not promote elongation
[1]; Δppd seedlings, 1 μM GA, 5 days
  hypocotyl elongation: increased hypocotyl elongation
[1]; Δppd seedlings, up to 5 μM GA, 5 days
  hypocotyl elongation: hypersensitive elongation

B1: Musa acuminate PPD: PEAPOD protein of Musa acuminate, SEQ ID NO: 108/114 (protein, listed as Musa acuminata)
chain: MNPGETTPPSPLDKPLAELTEEDIAQLTREDCRRFLKAKGMRRPSWNKSQAIQQVISLKALLEGRPGCDDCPAGGGILQKLLTSSPSEPLSPPQDSPPPAPKEGGSGSQPLAKEPSPYRRRDPIPPPYSAGNPTCQTPIAGADLPHPPEKRCPSPRLTAEVPVGQMTIFYDGMVNVYDGVSADQARSIMELAASPVCFDDPTGAFSPARPPAFRFPPGLPRPAPVPTAPSFVGTFPISPAGKRCYSYCSFRSSVSLLTTTEGPTSRKASLQRYLEKRKDRYGHLPTESILLVSGSGGGSAKGELRGHPFEGKPIPNPLLGLDSTRTGHHHHHHGS
[2]
  PEAPOD functionality by complementation of the Δppd deletion mutant: functionally equivalent
[3]
  leaf biomass/growth/length/branching compared to WT plants: increase in leaf biomass/growth/length/branching
[4]
  root biomass/growth/length/branching compared to WT plants: increase in root biomass/growth/length/branching

B2: Selaginella moellendorffii PPD: PEAPOD protein of Selaginella moellendorffii, SEQ ID NO: 110/116 (protein, listed as Selaginella moellendorffii)
chain: MSSMVDFLGIEEKVSTSVSAERLKKLEELTDEDVMQLTREDCRRYLKEKGMRRPSWNKAQAVQQLLSLKSLCDPSPASSGAAKRSPSPPLDEAPAKKPMAMTSIDLKAAAAVDAANLTMFYDGAVSVFDDVSPDKASLFPLAYAIMLLAGNVKSWPSINVAANTNKVVISSYELPQARKASLQRFLQRRREKTAKEAASKGNSNKSPCHGESSGKHASDATDPATSPLLTEVSSGSGGGSAKGELRGHPFEGKPIPNPLLGLDSTRTGHHHHHHGS
[2]
  PEAPOD functionality by complementation of the Δppd deletion mutant: functionally equivalent
[3]
  leaf biomass/growth/length/branching compared to WT plants: increase in leaf biomass/growth/length/branching
[4]
  root biomass/growth/length/branching compared to WT plants: increase in root biomass/growth/length/branching

B3: Picea sitchensis PPD: PEAPOD protein of Picea sitchensis, SEQ ID NO: 5 (protein, listed as Picea sitchensis)
chain: MRGGERAPGSRPSLDKPLEELTEEDIFQLTREDCRRYLKEKGMRRPSWNKSQAIQQVLSLKSLFESKPNQQSKKPSKHKPATLQFETARDSTFAQSSVSQEQSLGFSWSKEVLDKGTAERQRLCSDSQEAHEIPRLGSKPPQSNTEGKRCAHDGHGRKSAQPLVRLPANFKNDCSNRQSSHTSESQPDTLLRSDSFQQPTAQLTIFYAGMVNVYDDVPLDKA
[2]
  PEAPOD functionality by complementation of the Δppd deletion mutant: functionally equivalent
[3]
  leaf biomass/growth/length/branching compared to WT plants: increase in leaf biomass/growth/length/branching
[4]
  root biomass/growth/length/branching compared to WT plants: increase in root biomass/growth/length/branching

B4: Trifolium repens PPD: PEAPOD protein of Trifolium repens, SEQ ID NO: 11 (protein, listed as Trifolium repens)
chain: MNGGSTVSFRSILDKPLNQLTEDDISQLTREDCRRFLKDKGMRRPSWNKSQAIQQVISLKALLEPTDDDLPAPVGVSSAIHHHHHHHPQPPQRNLNEAPVKGSDLDDTGFHTAEDLNKSTSTAVEIPTETNDANVVKSSGGCVASGSFGQMTIFYCGKVNVYDGVSPDKARSIMQLAACPSSFPQDNLLNKNAAVWASPCNIPIDKDVLFPNDTAILQVAQTDKMVEYPLQYREKGSIARDADVEGQASRNASLQRYREKRKDRGRSKGNKLTGITSSNFEMYLNLPVKLHASNGNSSRSSTDSPPQPRLPLVSGGSAENQPKVTLPIDLNDKDVQEC
[2]
  PEAPOD functionality by complementation of the Δppd deletion mutant: functionally equivalent
[3]
  leaf biomass/growth/length/branching compared to WT plants: increase in leaf biomass/growth/length/branching
[4]
  root biomass/growth/length/branching compared to WT plants: increase in root biomass/growth/length/branching

B5: Amborella trichopoda PPD: PEAPOD protein of Amborella trichopoda, SEQ ID NO: 12 (protein, listed as Amborella trichopoda)
chain: MTAGDGSIRSILDKPLEELTEEDISQLTREDCRRYLKEKGMRRPSWNKYQAIQQVLSLKGLLEGKPCDDNSDVFSHRSPITVIPNVGSMREKEKAVNIADPEISGSHQPNFRREIHETTRERALPASDWPPSQEPVSQMTIFYAGAVNVYNDIPEDKVQAIIYLAGKSDSLQQTNVIRTGPDQCIASAASPSLNDLHSRRIHPTSNITTSQSLRVATSLPVGPHSEVPKTRKTSVQRFLEKRKDRGRLKGTLASGGSSKRGSSCLELYATSRLKSEGVATTTTQSNMNNVVVSPSNPRMPLNPGSCSWVEN
[2]
  PEAPOD functionality by complementation of the Δppd deletion mutant: functionally equivalent
[3]
  leaf biomass/growth/length/branching compared to WT plants: increase in leaf biomass/growth/length/branching
[4]
  root biomass/growth/length/branching compared to WT plants: increase in root biomass/growth/length/branching
